Experimental findings from CN115724950A (YIDAO BIOTECHNOLOGY SUZHOU CO LTD, dated 2023) are described below.

Test [1] concerns the target T1, HPV6-GFP假病毒 (Human papillomavirus type 6, UniProt P69899 1-500).
T1 sequence: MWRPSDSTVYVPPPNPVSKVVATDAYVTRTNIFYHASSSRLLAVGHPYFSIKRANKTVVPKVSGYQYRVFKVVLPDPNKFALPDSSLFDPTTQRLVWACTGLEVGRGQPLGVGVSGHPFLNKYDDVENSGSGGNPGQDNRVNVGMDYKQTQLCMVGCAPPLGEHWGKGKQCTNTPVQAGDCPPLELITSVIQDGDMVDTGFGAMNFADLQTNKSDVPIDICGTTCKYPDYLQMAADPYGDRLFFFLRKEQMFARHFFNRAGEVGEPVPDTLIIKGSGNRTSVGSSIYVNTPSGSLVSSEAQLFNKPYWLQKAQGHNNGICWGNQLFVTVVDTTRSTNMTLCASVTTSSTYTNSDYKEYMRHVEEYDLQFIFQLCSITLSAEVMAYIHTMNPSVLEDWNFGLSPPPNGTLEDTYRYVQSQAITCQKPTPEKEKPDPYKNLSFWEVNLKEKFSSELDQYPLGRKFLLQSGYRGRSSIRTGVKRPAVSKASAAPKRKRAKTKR
The experiment in a line: cell-based or functional assay.

Test [2] concerns the target T2, HPV 33 抗原 (Human papillomavirus type 33, UniProt P06416 1-499).
T2 sequence: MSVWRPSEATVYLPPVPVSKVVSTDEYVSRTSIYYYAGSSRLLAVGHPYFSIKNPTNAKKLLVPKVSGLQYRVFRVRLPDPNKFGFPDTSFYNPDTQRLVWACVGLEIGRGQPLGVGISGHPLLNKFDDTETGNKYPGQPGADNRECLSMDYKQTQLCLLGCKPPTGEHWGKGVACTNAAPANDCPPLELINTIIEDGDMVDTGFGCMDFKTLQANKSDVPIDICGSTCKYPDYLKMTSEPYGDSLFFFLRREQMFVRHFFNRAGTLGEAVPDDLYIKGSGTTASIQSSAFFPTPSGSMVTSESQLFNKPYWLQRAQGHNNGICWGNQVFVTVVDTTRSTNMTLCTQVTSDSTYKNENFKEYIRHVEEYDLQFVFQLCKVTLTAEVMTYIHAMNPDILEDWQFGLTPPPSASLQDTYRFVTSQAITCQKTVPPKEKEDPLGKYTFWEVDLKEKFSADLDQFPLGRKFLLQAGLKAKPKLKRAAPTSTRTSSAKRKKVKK
The test can be described thus: indirect ELISA, antigen coated at 1 μg/ml, supernatant diluted 20-fold.

Test [3] deals with T3, HPV 45 抗原 (Human papillomavirus type 45, UniProt P36741 27-539).
T3 sequence: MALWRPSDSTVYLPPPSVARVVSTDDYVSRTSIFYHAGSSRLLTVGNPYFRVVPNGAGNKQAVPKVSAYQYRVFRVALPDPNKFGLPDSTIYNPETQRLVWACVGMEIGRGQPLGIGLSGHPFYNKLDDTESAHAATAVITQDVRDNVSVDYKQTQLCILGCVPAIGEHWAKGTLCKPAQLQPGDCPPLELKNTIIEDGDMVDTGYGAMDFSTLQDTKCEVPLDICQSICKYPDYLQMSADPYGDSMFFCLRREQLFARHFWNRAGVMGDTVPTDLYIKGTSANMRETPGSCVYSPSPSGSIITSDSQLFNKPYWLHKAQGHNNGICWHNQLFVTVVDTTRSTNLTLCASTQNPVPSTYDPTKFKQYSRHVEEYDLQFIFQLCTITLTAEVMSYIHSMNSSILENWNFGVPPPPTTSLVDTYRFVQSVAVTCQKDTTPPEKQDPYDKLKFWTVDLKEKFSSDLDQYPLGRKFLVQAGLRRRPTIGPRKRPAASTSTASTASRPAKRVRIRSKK
The test is described as above.

In test [4] the target is T4, HPV11 抗原 (Human papillomavirus type 11, UniProt P04012 1-501).
T4 sequence: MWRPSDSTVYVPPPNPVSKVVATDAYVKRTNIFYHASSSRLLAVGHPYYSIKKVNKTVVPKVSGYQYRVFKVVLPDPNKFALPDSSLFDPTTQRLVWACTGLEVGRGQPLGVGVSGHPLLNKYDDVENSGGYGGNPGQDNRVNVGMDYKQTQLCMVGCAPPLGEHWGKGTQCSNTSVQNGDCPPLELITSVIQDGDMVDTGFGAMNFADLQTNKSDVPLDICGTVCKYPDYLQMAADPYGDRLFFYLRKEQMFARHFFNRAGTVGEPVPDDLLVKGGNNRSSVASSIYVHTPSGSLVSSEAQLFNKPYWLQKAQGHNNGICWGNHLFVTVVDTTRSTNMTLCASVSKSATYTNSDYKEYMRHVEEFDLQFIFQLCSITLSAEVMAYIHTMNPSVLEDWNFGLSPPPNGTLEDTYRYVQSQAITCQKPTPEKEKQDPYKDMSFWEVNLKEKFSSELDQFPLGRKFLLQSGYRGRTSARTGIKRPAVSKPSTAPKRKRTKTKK
Described as above.

Test [5] addresses T5, HPV 58 抗原 (Human papillomavirus type 58, UniProt P26535 27-524).
T5 sequence: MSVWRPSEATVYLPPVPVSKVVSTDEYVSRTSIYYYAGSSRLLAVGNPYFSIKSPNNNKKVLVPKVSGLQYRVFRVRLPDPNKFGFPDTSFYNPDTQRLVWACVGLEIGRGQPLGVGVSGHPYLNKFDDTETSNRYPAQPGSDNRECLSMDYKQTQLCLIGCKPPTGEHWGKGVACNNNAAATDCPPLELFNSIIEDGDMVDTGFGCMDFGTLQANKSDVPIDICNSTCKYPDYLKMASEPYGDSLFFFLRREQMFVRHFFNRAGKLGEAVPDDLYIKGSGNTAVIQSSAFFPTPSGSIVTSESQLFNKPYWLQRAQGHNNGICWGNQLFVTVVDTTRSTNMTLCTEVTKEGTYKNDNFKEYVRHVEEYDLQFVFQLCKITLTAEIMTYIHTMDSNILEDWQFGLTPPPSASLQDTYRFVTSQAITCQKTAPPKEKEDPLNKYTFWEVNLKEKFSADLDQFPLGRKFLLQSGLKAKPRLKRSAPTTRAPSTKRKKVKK
Described as above.

Test [6] has as its target T6, HPV31 抗原 (Human papillomavirus type 31, UniProt P17388 1-504).
T6 sequence: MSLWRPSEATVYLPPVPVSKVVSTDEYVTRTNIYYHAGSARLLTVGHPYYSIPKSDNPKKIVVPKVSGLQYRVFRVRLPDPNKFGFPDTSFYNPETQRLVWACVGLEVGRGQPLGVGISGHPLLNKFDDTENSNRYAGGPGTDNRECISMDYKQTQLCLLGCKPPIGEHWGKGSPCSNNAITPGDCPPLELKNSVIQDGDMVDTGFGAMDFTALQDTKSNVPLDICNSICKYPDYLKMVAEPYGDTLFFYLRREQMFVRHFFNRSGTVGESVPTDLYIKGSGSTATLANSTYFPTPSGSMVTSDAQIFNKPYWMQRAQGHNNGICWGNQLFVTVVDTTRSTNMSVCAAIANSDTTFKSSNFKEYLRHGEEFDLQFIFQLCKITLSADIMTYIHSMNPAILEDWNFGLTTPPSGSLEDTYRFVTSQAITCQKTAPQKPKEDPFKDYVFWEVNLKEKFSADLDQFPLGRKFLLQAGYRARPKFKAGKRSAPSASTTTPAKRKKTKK
The test is described as above.

Test [7] concerns the target T7, HPV 18 抗原 (Human papillomavirus type 18, UniProt P06794 62-568).
T7 sequence: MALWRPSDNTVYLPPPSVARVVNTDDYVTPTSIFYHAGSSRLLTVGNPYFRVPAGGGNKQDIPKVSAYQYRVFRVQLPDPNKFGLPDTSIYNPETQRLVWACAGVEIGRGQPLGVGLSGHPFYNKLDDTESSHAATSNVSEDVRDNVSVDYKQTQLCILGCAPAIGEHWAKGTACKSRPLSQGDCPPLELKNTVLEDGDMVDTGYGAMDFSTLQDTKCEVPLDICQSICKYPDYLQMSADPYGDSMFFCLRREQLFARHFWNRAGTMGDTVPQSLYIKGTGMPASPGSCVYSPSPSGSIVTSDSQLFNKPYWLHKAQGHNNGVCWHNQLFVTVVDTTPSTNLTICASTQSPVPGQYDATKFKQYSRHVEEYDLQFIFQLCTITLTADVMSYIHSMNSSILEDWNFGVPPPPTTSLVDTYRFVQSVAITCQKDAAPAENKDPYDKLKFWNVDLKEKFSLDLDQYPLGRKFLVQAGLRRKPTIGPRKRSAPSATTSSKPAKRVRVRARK
The description is as above.

The target in test [8] is T8, HPV 16 抗原 (Human papillomavirus type 16, UniProt P03101 1-505).
T8 sequence: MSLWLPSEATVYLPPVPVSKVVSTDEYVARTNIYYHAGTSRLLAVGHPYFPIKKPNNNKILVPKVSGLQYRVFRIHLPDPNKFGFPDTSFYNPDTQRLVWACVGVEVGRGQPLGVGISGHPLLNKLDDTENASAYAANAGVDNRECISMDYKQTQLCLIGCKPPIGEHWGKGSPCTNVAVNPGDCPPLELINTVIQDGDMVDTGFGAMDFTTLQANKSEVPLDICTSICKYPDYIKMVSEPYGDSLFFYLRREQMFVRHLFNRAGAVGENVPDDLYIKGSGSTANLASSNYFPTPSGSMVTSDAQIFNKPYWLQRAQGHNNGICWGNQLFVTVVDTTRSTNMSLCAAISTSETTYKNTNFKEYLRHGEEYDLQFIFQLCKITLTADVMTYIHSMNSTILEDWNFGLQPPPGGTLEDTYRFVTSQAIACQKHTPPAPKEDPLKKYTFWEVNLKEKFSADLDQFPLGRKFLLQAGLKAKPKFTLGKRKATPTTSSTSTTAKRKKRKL
The test is described as above.

B1: 6H1 鼠源单克隆抗体 (杂交瘤 CGMCC No.45134) (antibody, V domains shown)
VH: EVQLQQSGPEVVKTGASVKISCKASGYSFTGYYMHWVKQSHGKSLEWIGYISCYNGATSYNQKFKGKATFTLDTSSSTAYMQFNSLTSEDSAVYYCAREDEYDGAYYLDYWGQGTTLTVSS
VL: DIVMTQSQKFMSTSVGDRVSVTCKASQNVGTNVAWYQQKPGQSPKTLIYSASYRYSGVPDRFTGSGSGTDFTLTISNVQSEDLAEYFCQQYFRYPLTFGAGTKLELK
notes: Tested as hybridoma supernatant (1.3, 1.4) and as protein G purified ascites antibody (1.6, 3.1); also called 第二单克隆抗体; 6H1 Lot#:2021081604
For B1, in test [1], the “假病毒中和实验 (HPV6-GFP假病毒, 293FT细胞, 荧光斑点数)” value was ≥ 5120 fold dilution of supernatant. In addition, the “假病毒中和实验, 中和活性” value in test [1] is 20500 fold dilution (titre). Further, the binding result in test [2], in test [3], in test [4], in test [5], in test [6] and in test [7] was “no binding” in each case. The binding result in test [8] is listed as “no binding”.

B2: 1G11 鼠源单克隆抗体 (杂交瘤 CGMCC No.45133) (antibody, V domains shown)
VH: EVKLVESGGGLVKPGGSLKLSCAASGVTFSSYAMSWVRQTPEKRLEWVASITRGGSTYYPDSVKGRFTISRDNARNILYLQMSSLRSEDTAMYYCAREGEDYYGSSYVDYWGQGTTLTVSS
VL: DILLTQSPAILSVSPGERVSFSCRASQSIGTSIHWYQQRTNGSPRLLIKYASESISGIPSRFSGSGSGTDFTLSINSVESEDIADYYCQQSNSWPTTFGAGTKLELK
notes: Tested as hybridoma supernatant (1.3, 1.4) and as protein G purified ascites antibody (1.6, 3.1); also called 第一单克隆抗体; 1G11 Lot#:2021081603
Take B2: the “假病毒中和实验 (HPV6-GFP假病毒, 293FT细胞, 荧光斑点数)” value in test [1] is ≥ 5120 fold dilution of supernatant. Moreover, in test [1], the “假病毒中和实验, 中和活性” value is 20500 fold dilution (titre). Also, the binding result in test [2], in test [3], in test [4], in test [5], in test [6] and in test [7] was “no binding” throughout. The binding result in test [8] is “no binding”.
